According to the supplement of paper PMC9732359:
± gives the uncertainty stated by the source.

Assay: protein stability index of a GFP-peptide fusion (yeast GPS) (PSI 1-4); higher = more stable; sorted into four equal gates, so the index is relative within each strain
Conditions: pdr5∆
Method in brief: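 Sequencing reads from sorted gates were used to score each peptide. The library consisted of tiled 17-residue yeast protein peptides fused downstream of GFP on a Cherry-expressing plasmid, pooled and carried in yeast. Mid-log cultures in leucine-free medium were split into four equal gates by GFP/Cherry ratio, and each gate's plasmids were PCR-amplified and Illumina-sequenced. The protein stability index adds up, over all gates, the read frequency multiplied by the gate number.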

| Sequence | protein stability index |
| --- | --- |
| LTITKAAGANVDNVWAD [RPP1B] | 2.26 ± 0.063 |
| LTKAAIVQIDATPFRQW [RPS8A] | 2.453 ± 0.017 |
| LTKKEKKEANLFPEQQN [RPL6A] | 3.2 ± 0.072 |
| LTKKEKKEANLFPEQQT [RPL6B] | 3.21 ± 0.072 |
| LTKLNEDDLVGVVQMVT [TAF14] | 3.18 ± 0.074 |

Same assay, conditions: san1∆

| Sequence | protein stability index |
| --- | --- |
| LLGYTGIPTDKGPRFRK [PRE8] | 2.66 ± 0.066 |
| LLHHVSELDSNDFFIIY [YJL039C/NUP192] | 1.61 ± 0.14 |
| LLKGPASTVAKTAPIQE [YOR098C/NUP1] | 1.91 ± 0.18 |
| LLKLLTRLVQLREFRIT [GRR1] | 1.23 ± 0.13 |
| LLKPFHVKVNDKKEMTI [SIR3] | 2.21 ± 0.14 |
| LLKQYPKDSSSTFREWK [YJR042W/NUP85] | 2.71 ± 0.038 |
| LLMSCPRLSHLSLTAVP [GRR1] | 1.63 ± 0.12 |
| LLNAADRDALSGWGAVV [PUP3] | 3.03 ± 0.081 |
| LLQLKYFSNKTSTGIIR [POP5] | 1.35 ± 0.29 |
| LLRFNGVERLIPVGDNT [PRE4] | 1.53 ± 0.13 |
| LLSDVVSTSSGAAANNN [YJL041W/NSP1] | 3.32 ± 0.047 |
| LLSGEDLTLDDISLKAD [YJL039C/NUP192] | 3.44 ± 0.038 |
| LLSSESNIPTLIEKLQG [YDL116W/NUP84] | 2.6 ± 0.047 |
| LLTPDIGAVYSGMGPDY [PRE8] | 1.2 ± 0.1 |
| LLYADSLTAEAMTAAEH [CYT1] | 2.78 ± 0.057 |
| LMASVILDSLPSVIHSS [YDL116W/NUP84] | 1.34 ± 0.067 |
| LMDDMSDISDLDDLGFL [RPN3] | 1.92 ± 0.091 |
| LMDKCLPKVRIRTRRAA [DIS3] | 1.42 ± 0.085 |
| LMEKNRIRKLTGQNFLT [REC8] | 1.65 ± 0.077 |
| LMLEDTDGDSILYYDVL [BRR2] | 3.12 ± 0.067 |
| LMRELLKMMKLIVDTHV [PRP8] | 2.29 ± 0.088 |
| LMYQIKKECALLISYGV [SRB4] | 2.12 ± 0.19 |
| LNAIILKLEKLNTNRTF [SMC3] | 2.24 ± 0.09 |
| LNAIVSKNSPAEDDVII [YJR042W/NUP85] | 3.27 ± 0.087 |

| Sequence | protein stability index |
| --- | --- |
| LNDEGEPIKVNVRVGQA [RPN1] | 2.85 ± 0.065 |
| LNDSNVKSFKPHLLKQG [RRP42] | 2.58 ± 0.24 |
| LNEALLQCPMLYVESTG [CSN12] | 1.23 ± 0.15 |
| LNEFFTRELAEEGYSGV [RPS3] | 1.44 ± 0.15 |
| LNEIELDNLKLKELRID [GRR1] | 3.18 ± 0.054 |
| LNINNPNFLIMQGKITK [SMC2] | 2.87 ± 0.13 |
| LNKAGKPFRQTKFKVRG [RPL38] | 3.19 ± 0.11 |
| LNKLYGGAKSRGVRPYK [RPS19A] | 3.09 ± 0.061 |
| LNLINAKLWFYIYLSHE [RPN3] | 1.28 ± 0.095 |
| LNLLNYQELFIQPKNSD [YML103C/NUP188] | 2.35 ± 0.054 |
| LNPQVADINKNFLSVIT [RPN2] | 1.98 ± 0.071 |
| LNRLPAASLGDMVMATV [RPL23A] | 2.52 ± 0.17 |
| LNSLLTYIKSEITQQEK [SMC4] | 2.73 ± 0.071 |
| LNSLSPQAILAKNSIID [SWI1] | 1.8 ± 0.044 |
| LNSMPNNVNEYSYTTIV [YJL039C/NUP192] | 2.75 ± 0.075 |
| LPEIAKEIYTTLGNQML [YJR042W/NUP85] | 2.87 ± 0.093 |
| LPEPTEGFAADDEPTTP [FAS1] | 3.35 ± 0.15 |
| LPGDMLAVCDELGNMTM [SIN4] | 2.78 ± 0.089 |
| LPGTNNNSNSNNNSSNE [SEC65] | 2.89 ± 0.042 |
| LPLDSQDDEYVKDWLYD [PRP8] | 3.35 ± 0.099 |
| LPLQAQQQLYGGNNNNN [SWI1] | 2.68 ± 0.068 |
| LPNKSTISKTVSSTIPR [FAS2] | 2.92 ± 0.11 |
| LPVASPFHSHLLVPASD [FAS1] | 1.98 ± 0.063 |
| LPYNWDALEMQWRYLYD [ARP7] | 2.44 ± 0.11 |

| Sequence | protein stability index |
| --- | --- |
| LQAIQEKLNKTDENTPS [ITC1] | 2.98 ± 0.047 |
| LQDLEEAKSFQDEAELV [RPC82] | 3.52 ± 0.14 |
| LQDLSRYSRQFINNVLS [GRR1] | 2.56 ± 0.049 |
| LQDWQREDEFGSIPSLT [YDL088C/ASM4] | 3.11 ± 0.049 |
| LQGIVIWDSQKFFIMIV [POP4] | 2.21 ± 0.076 |
| LQGVTYPVLRKLYKKIA [YIL149C/MLP2] | 1.55 ± 0.14 |
| LQISDIPAAGNNRSVSM [SRB5] | 2.4 ± 0.083 |
| LQKSSKSMITSEGEQKS [YAR002W/NUP60] | 2.85 ± 0.04 |
| LQLELTIEDIAVAITRA [RPO31] | 1.97 ± 0.058 |
| LQLLPLQKAVRGHVLQF [SNF2] | 1.23 ± 0.081 |
| LQMDYKDDMKVDDAIEL [PRE9] | 3.21 ± 0.067 |
| LQNDLIHKIQNDNNLKK [RPN5] | 3.11 ± 0.054 |
| LQNIVMDCTKEEEATMT [YIL149C/MLP2] | 3.31 ± 0.086 |
| LQNKPDAKKARFWSFMK [SIR4] | 2.61 ± 0.093 |
| LQNNINNSNNNNIIRIQ [SNF11] | 2.87 ± 0.069 |
| LQQKHELDTASRILKAQ [YGR119C/NUP57] | 2.53 ± 0.052 |
| LQRHSGISSTLVSANND [YLR018C/POM34] | 2.96 ± 0.062 |
| LQYGWKVERHIMDNDPV [RPO21] | 1.37 ± 0.19 |
| LRDIGECENEIKTKQMS [SMC2] | 3.2 ± 0.097 |
| LRDREDWGQALRLLLLL [YJR042W/NUP85] | 2.2 ± 0.083 |
| LRDRNFSATGNFGFGID [RPL11A] | 2.93 ± 0.1 |
| LRDSLADKIVDEFPELK [NUT2] | 1.97 ± 0.23 |
| LRGCKFLQSVDITGIRD [GRR1] | 1.89 ± 0.053 |
| LRIGRIEDVTPVPSDST [RPS14B] | 2.78 ± 0.04 |

| Sequence | protein stability index |
| --- | --- |
| LRLCLDIVPYFLKHNGE [RPN1] | 1.71 ± 0.082 |
| LRLTRINSGTFVKVTKA [RPL7A] | 1.43 ± 0.28 |
| LRPRKDSKDGTTLNIKV [SMB1] | 3.18 ± 0.12 |
| LRQLLKERYTVEDELTE [RRI1] | 3.33 ± 0.076 |
| LRRTTQRVFDETEQEYS [YDL116W/NUP84] | 3.2 ± 0.061 |
| LRTEYGWDSLASRNVWS [SNU114] | 3.4 ± 0.099 |
| LRYVKQIEGPFLIIVPK [ISW2] | 2.29 ± 0.065 |
| LSALDHYERTQTKENKR [RPN8] | 2.71 ± 0.073 |
| LSEDKKKLDYVLALKVE [RPS9A] | 1.41 ± 0.16 |
| LSIPGKSTPEGTLWAHV [SNU114] | 2.9 ± 0.059 |
| LSKEVPFSYLIDETMMD [SRB5] | 2.22 ± 0.13 |
| LSLEEVEGHLFEIIDEA [FAS1] | 3.09 ± 0.063 |
| LSLNLGDYGSAKCNSLL [POP5] | 2.57 ± 0.081 |
| LSNCLANARDFGEWAGM [BRR2] | 2.28 ± 0.17 |
| LSRGYTCPGLSLTDVAF [ECM29] | 2.29 ± 0.11 |
| LSRLQKSGRINGFHGRL [SMC4] | 3.29 ± 0.081 |
| LSSLKSFAIYSSTIDAP [SRB8] | 1.83 ± 0.064 |
| LSSNITFDGKPTATPSP [YMR153W/NUP53] | 3 ± 0.043 |
| LSSVALRSDFYILANHY [YJL039C/NUP192] | 1.59 ± 0.24 |
| LSTLEPSTSITLAERQQ [RPN9] | 2.58 ± 0.062 |
| LSWCPSRFSPEKLAVSA [YGL100W/SEH1] | 2.81 ± 0.14 |
| LTIGVKFFMKHGLILEL [SRB5] | 1.65 ± 0.062 |
| LTITKAAGANVDNVWAD [RPP1B] | 2.78 ± 0.15 |
